Experimental data as given in US20250250357A1.

Tests used:
[1] = target: monkey MSLN full-length protein (NCBI: XP_028696439.1) expressed on HEK293T-monkey MSLN cells (monkey); experiment: FACS on HEK293T-monkey MSLN cells
[2] = target: human MSLN full-length protein (NCBI: AAH09272.1) on stably transfected CHO-K1 or HEK293T cells (human) (UniProt Q13421); experiment: FACS on CHO-K1-hMSLN-2C8 cells; antibody 0.8 nM
[3] = target: human MSLN-R3-3 polypeptide (human); experiment: ELISA, coated antigen, antibody 100 nM
[4] = target: human MSLN-R3-3 polypeptide (human); experiment: ELISA, coated antigen, antibody 0.0001 nM
[5] = target: human MSLN-R3-3 polypeptide (human); experiment: ELISA, coated antigen, antibody 0.001 nM
[6] = target: human MSLN-R3-3 polypeptide (human); experiment: ELISA, coated antigen, antibody 1 nM
[7] = target: human MSLN full-length protein (NCBI: AAH09272.1) on stably transfected CHO-K1 or HEK293T cells (human) (UniProt Q13421); experiment: FACS on CHO-K1-hMSLN-2C8 cells; antibody 0.0064 nM
[8] = target: human MSLN-R3-3 polypeptide (human); experiment: ELISA, coated antigen, antibody 10 nM
[9] = target: human MSLN-R3-3 polypeptide (human); experiment: ELISA, coated antigen, no antibody (blank)
[10] = target: human MSLN full-length protein (NCBI: AAH09272.1) on stably transfected CHO-K1 or HEK293T cells (human) (UniProt Q13421); experiment: FACS on CHO-K1-hMSLN-2C8 cells; antibody […]
[11] = target: human MSLN full-length protein (NCBI: AAH09272.1) on stably transfected CHO-K1 or HEK293T cells (human) (UniProt Q13421); experiment: FACS on CHO-K1-hMSLN-2C8 cells; antibody 0.00128 nM
[12] = target: human MSLN-R3-3 polypeptide (human); experiment: ELISA, coated antigen, antibody 0.01 nM
[13] = target: human MSLN-R3-3 polypeptide (human); experiment: ELISA, coated antigen, antibody 0.1 nM
[14] = target: human MSLN-R3-3 polypeptide (human); experiment: ELISA; antibody 1 nM
[15] = target: human MSLN full-length protein (NCBI: AAH09272.1) on stably transfected CHO-K1 or HEK293T cells (human) (UniProt Q13421); experiment: FACS on CHO-K1-hMSLN-2C8 cells; antibody 4 nM
[16] = target: human MSLN full-length protein (NCBI: AAH09272.1) on stably transfected CHO-K1 or HEK293T cells (human) (UniProt Q13421); experiment: FACS on CHO-K1-hMSLN-2C8 cells; antibody 20 nM
[17] = target: human MSLN full-length protein (NCBI: AAH09272.1) on stably transfected CHO-K1 or HEK293T cells (human) (UniProt Q13421); experiment: FACS on CHO-K1-hMSLN-2C8 cells; antibody 100 nM
[18] = target: human MSLN full-length protein (NCBI: AAH09272.1) on stably transfected CHO-K1 or HEK293T cells (human) (UniProt Q13421); experiment: FACS on CHO-K1-hMSLN-2C8 cells; antibody 0.032 nM
[19] = target: human MSLN-R3 protein (Met487-Ser606 of NCBI AAH09272.1) expressed on HEK293T-hMSLN-R3 cells (human) (UniProt Q13421); experiment: FACS on HEK293T-hMSLN-R3 cells
[20] = target: human MSLN on OVCAR3 tumor cells (human) (UniProt Q13421); experiment: FACS, OVCAR3 cells
Chain of human MSLN on OVCAR3 tumor cells (human) (Q13421 other isoform, or with tags, fused parts or gaps): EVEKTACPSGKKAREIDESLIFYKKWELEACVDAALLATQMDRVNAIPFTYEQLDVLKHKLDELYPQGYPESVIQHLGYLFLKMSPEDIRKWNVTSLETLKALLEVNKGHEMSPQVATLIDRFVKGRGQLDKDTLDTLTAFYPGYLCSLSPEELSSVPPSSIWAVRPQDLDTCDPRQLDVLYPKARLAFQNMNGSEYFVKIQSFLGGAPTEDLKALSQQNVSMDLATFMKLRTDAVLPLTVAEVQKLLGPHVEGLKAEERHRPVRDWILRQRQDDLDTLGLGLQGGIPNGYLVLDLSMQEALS

Chain of human MSLN-R3 protein (Met487-Ser606 of NCBI AAH09272.1) expressed on HEK293T-hMSLN-R3 cells (human) (Q13421 495-614): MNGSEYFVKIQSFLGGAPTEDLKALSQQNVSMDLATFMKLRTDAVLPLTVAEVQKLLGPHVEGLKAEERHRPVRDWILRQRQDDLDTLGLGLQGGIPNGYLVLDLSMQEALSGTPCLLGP

B1: S009-F1.62.9 (antibody, human IgG1, kappa, V domains shown)
VH: EVQLQQSGADLVKPGASVKLSCTVFGLNFKDTFMHWVRQRPEQGLEWIGRIDPANDNSIYGPKFQDKATITADTSSNTAYLHLSSLTSEDTAVYYCLYFDNWGHGTTLTVSS
VL: DIVMTQAASSEPVTPGESVSISCRSDKSLLHSNGHNYLYWFLQRPGQSPHLLIYRMSNLASGVPDRFSGSGSGTAFTLRISRVEAEDVGVYYCMQHLEYPLTFGAGTKLELKR
Work on B1 yielded a Maximum mean fluorescence intensity [1] of 965.

B2: Tab106 (YP218, hIgG1) (antibody, V domains shown)
VH: QQQLEESGGGLVKPEGSLTLTCKASGFDLGFYFYACWVRQAPGKGLEWIACIYTAGSGSTYYASWAKGRFTISKASSTTVTLQMTSLAAADTATYFCARSTANTRSTYYLNLWGPGTLVTVSS
VL: DVVMTQTPASVSEPVGGTVTIKCQASQRISSYLSWYQQKPGQRPKLLIFGASTLASGVPSRFKGSGSGTEYTLTISDLECADAATYYCQSYAYFDSNNWHAFGGGTEVVVRT
B2 was tested, and the FACS fluorescence intensity [2] was 812, the OD450 [3] was 1.94 and the OD450 [4] was 0.06. For the same binder, the OD450 [5] was 0.05, the OD450 [6] was 0.33 and the FACS fluorescence intensity [7] was 77. The OD450 [8] was 1.35, the OD450 [9] was 0.07 and the FACS fluorescence intensity [10] was 270. For the same binder, the FACS fluorescence intensity [11] was 68, the OD450 [12] was 0.05 and the OD450 [13] was 0.08. For the same binder, the OD450 nm [14] was 0.98, the FACS fluorescence intensity [15] was 2780 and the FACS fluorescence intensity [16] was 6270. It also gave an FACS fluorescence intensity [17] of 6720 and an FACS fluorescence intensity [18] of 119.

B3: S009-F2.47.1 (antibody, human IgG1, kappa, V domains shown)
VH: QVQLQQPGAELVKPGASVKLSCKASGYTFTSYWMHWVKQRPGQGLEWIGMIHPNSGSTNYNEKFKSKATLTVDKSSSTAYMQLSSLTSEDSAVYYCARPVVPYWYFDVWGTGTTVTVSS
VL: DIVMTQSQKFMSTTVGDRVSITCKASQNVGTAVAWYQQKPGQSPKLLIYSASNRYTGVPDRFTGSGSGTDFTLTISNMQSEDLADYFCQQSSSYPLTFGAGTKLELKR
B3 showed a Maximum mean fluorescence intensity [19] of 4580.

B4: Tab107 (YP3, hIgG1) (antibody, V domains shown)
VH: QEQLVESGGGLVQPGASLTLTCTASGIDFSRYYMCWVRQAPGKGLEGIACIYIGGSGSTYYASWAKGRFTISKASSTTVTLQMTSLTAADTATYFCARGTNLNYIFRLWGPGTLVTVSS
VL: DVVMTQTPSPVSAAVGGTVTIKCQASQSINNGLAWYQQKPGQPPRLLIYSASNLESGVPSRFKGSGSGTEFTLTISDLECDDAATYYCQCIWDGNSYVNAFGGGTEVVVRT
For B4, the FACS fluorescence intensity [2] was 767, the FACS fluorescence intensity [7] was 70 and the FACS fluorescence intensity [10] was 264. For the same binder, the FACS fluorescence intensity [11] was 63, the OD450 nm [14] was 0.07 and the FACS fluorescence intensity [15] was 2960. The FACS fluorescence intensity [16] was 6930, the FACS fluorescence intensity [17] was 7860 and the FACS fluorescence intensity [18] was 120.

B5: S009-F2.58.8 (antibody, human IgG1, kappa, V domains shown)
VH: QVQLLQSGAELAKPGASVKLSCKASGYTFTSYWVHWVKQRPGQGLEWIGYINPNSGYTKYNQKFKDKATLTADKSSSTAYMQLSSLTYEDSAVYYCADHYYGSSRDYFDYWGQGTTLTVSS
VL: QIVLTQSPAIMSASPGEKVTMTCSASSSVSYMYWYQQRPGSSPRLLIYDTSNLASGVPVRFSGSGSGTSYSLTISRMEAEDAATYYCQQWNSYPYTFGGGTKLEIKR
With B5 the Maximum mean fluorescence intensity [1] was 1000.

B6: S009-F1.59.1 (antibody, human IgG1, kappa, V domains shown)
VH: EVKLEGSGGGLVQPGGSMMLSCVATGFTFSSYWMNWVRQSPDRGLEWVAEIRLKSNGFAAFYAESVKGRFTISRDDSKSSVYLQMNNLRTEDTGIYYCTYFVHWGQGILVTVSE
VL: DIVLTQSPTSLAVSLGQRATISCRTSESVEYFGTILIQWYQQKPGQPPKLLIFGASNVESGVPARFSGSGSGTDFSLNIHPVEEEDIAMYFCQQNRKVPYTFGGGTTLELKR
Work on B6 yielded a Maximum mean fluorescence intensity [1] of 1420.

B7: F3.38.10-L2H3a (scFv, not shown: small tags and cut ends)
scFv: DIVMTQSPDSLAVSLGERATINCRSSQSLIHSDGNTYLQWYQQKPGQSPKLLIYKVSNRFSGVPDRFSGSGSGTDFTLTISSLQAEDVAVYYCSQTTHVPFTFGQGTKLEIKGGGGSGGGGSGGGGSEVQLVQSGAEVKKPGASVKVSCKASGYIFTDYYMNWVRQAPGQRLEWMGVINPKQGVISHNQKFKGRVTITVDKSANTAYMELSSLRSEDTAVYYCANYGSRFYAMDYWGQGTTVTVSS
For B7, the Maximum MFI [20] was 499 MFI.
